Reference: the supplement of paper PMC7877785
± gives the uncertainty stated by the source.

Assay: self-splicing fitness, log relative to wild type (ln ratio); higher = more splicing; Tetrahymena group I intron in knt gene, E. coli kanamycin selection, DiMSum; sequences stand for … in CUCUCU…GGAGGGAAAAGUUAUCAGGCAUGCACCUGGUAGCUAGUCUUUAAACCAAUAGAUUGCAUCGGUUUAAAAGGCAAGACCGUCAAAUUGCGGGAAAGGGGUCAACAGCCGUUCAGUACCAAGUCUCAGGGGAAACUUUGAGAUGGCCUUGCAAAGGGUAUGGUAAUAAGCUGACGGACAUGGUCCUAACCACGCAGCCAAGUCCUAAGUCAACAGAUCUUCUGUUGAUAUGGAUGCAGUUCACAGACUAAAUGUCGGUCGGGGAAGAUGUAUUCUUCUCAUAAGAUAUAGUCGGACCUCUCCUUAAUGGGAGCUAGCGGAUGAAGUGAUGCAACACUGGAGCCGCUGGGAACUAAUUUGUAUGCGAAAGUAUAUUGAUUAGUUUUGGAGUACUCGUGGUCG
Procedure, shortened: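 Colonies from six replicate transformations of E. coli BL21(DE3) were pooled and amplicon-sequenced on an Illumina HiSeq 2500. The library placed an intron with all eight P1ex-region nucleotides randomised inside the knt kanamycin-resistance gene on pET-22b(+), and cells grew overnight at 37°C or 30°C on LB agar with or without 25 μg/mL kanamycin (plus 100 μg/mL carbenicillin, 50 μM IPTG, 0.2% rhamnose). Fitness is the DiMSum error-weighted combination of wild-type-normalised replicate fold changes, kanamycin versus none.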

Row | Sequence | self-splicing fitness (ln) (30 °C) | self-splicing fitness (ln) (37 °C)
1 | AUAGAGCAAUAUUACGUCCU | -1.42 ± 0.093 | -0.577 ± 0.14
2 | AGACAGCAAUAUUACGGCGC | -0.893 ± 0.092 | -0.134 ± 0.12
3 | CCCCAGCAAUAUUACGCCAG | -3.57 ± 0.2 | -2.44 ± 0.22
4 | AUCCAGCAAUAUUACGCACU | -0.149 ± 0.11 | 0.144 ± 0.11
5 | UAGGAGCAAUAUUACGGUAG | -3.52 ± 0.17 | -1.56 ± 0.13
6 | UUUGAGCAAUAUUACGGCGC | -2.21 ± 0.35 | –
7 | UAAUAGCAAUAUUACGCUAG | -2.46 ± 0.12 | -0.773 ± 0.14
8 | CCACAGCAAUAUUACGUGUC | -3.11 ± 0.15 | -2.68 ± 0.16
9 | UCAUAGCAAUAUUACGGGUC | -2.94 ± 0.42 | -2.9 ± 0.35
10 | CCUGAGCAAUAUUACGGAGG | -3.56 ± 0.24 | -2.54 ± 0.26
11 | ACUUAGCAAUAUUACGUAAG | -0.131 ± 0.081 | -0.844 ± 0.1
12 | UUAUAGCAAUAUUACGAAUU | -3.24 ± 0.33 | -0.681 ± 0.25
13 | CGAGAGCAAUAUUACGGCGA | -2.72 ± 0.3 | -1.28 ± 0.31
14 | CGAUAGCAAUAUUACGUUAA | -3.59 ± 0.21 | -1.15 ± 0.16
15 | UCAGAGCAAUAUUACGCACU | -2.95 ± 0.44 | -2.62 ± 0.48
16 | CCCCAGCAAUAUUACGUCAU | -3.36 ± 0.1 | -3.02 ± 0.15
17 | CGCCAGCAAUAUUACGAUAU | -3.92 ± 0.22 | -2.14 ± 0.2
18 | AUCAAGCAAUAUUACGGUAA | -2.12 ± 0.12 | -0.319 ± 0.084
19 | AUACAGCAAUAUUACGGCGU | -0.145 ± 0.065 | 0.665 ± 0.076
20 | GCUCAGCAAUAUUACGAAUC | -0.406 ± 0.081 | -0.385 ± 0.082
21 | AAUCAGCAAUAUUACGUGUC | -0.924 ± 0.053 | -0.319 ± 0.069
22 | UAUCAGCAAUAUUACGGAUU | -0.839 ± 0.079 | 0.0545 ± 0.1
23 | GUAAAGCAAUAUUACGGCGG | -1.39 ± 0.1 | -1.76 ± 0.16
24 | GACGAGCAAUAUUACGUGGA | -4 ± 0.21 | -2.92 ± 0.21
25 | AAACAGCAAUAUUACGGGGC | -3.85 ± 0.16 | -3.51 ± 0.19

Row | Sequence | self-splicing fitness (ln) (30 °C) | self-splicing fitness (ln) (37 °C)
26 | UCAUAGCAAUAUUACGCGUG | -2.85 ± 0.12 | -1.67 ± 0.11
27 | GAACAGCAAUAUUACGUGGC | -3.03 ± 0.17 | -2.6 ± 0.18
28 | GGCAAGCAAUAUUACGCAGC | – | -2.27 ± 0.28
29 | CCUCAGCAAUAUUACGGCCA | -2.68 ± 0.33 | -2.62 ± 0.33
30 | GCAAAGCAAUAUUACGGCCA | -2.11 ± 0.24 | -0.962 ± 0.19
31 | UGACAGCAAUAUUACGACAA | -0.197 ± 0.087 | 0.15 ± 0.1
32 | UAAGAGCAAUAUUACGGGGG | -2.94 ± 0.22 | –
33 | UAUAAGCAAUAUUACGUGGU | -3.76 ± 0.29 | -2.53 ± 0.21
34 | CUUCAGCAAUAUUACGAAUU | -2.66 ± 0.19 | -0.66 ± 0.13
35 | UGUGAGCAAUAUUACGCCAG | -2.23 ± 0.32 | -2.01 ± 0.34
36 | CCGUAGCAAUAUUACGGAUA | – | -2.16 ± 0.28
37 | AUGAAGCAAUAUUACGGACU | 0.892 ± 0.12 | 0.27 ± 0.1
38 | GACCAGCAAUAUUACGAUUA | -0.607 ± 0.056 | -0.446 ± 0.072
39 | CCAUAGCAAUAUUACGGGGG | -3.01 ± 0.16 | -3.36 ± 0.31
40 | UGCCAGCAAUAUUACGGCUC | -2.89 ± 0.21 | -1.48 ± 0.23
41 | AAGAAGCAAUAUUACGUCGG | -0.907 ± 0.12 | -1.02 ± 0.14
42 | UCCGAGCAAUAUUACGGUGC | -3.26 ± 0.19 | -2.62 ± 0.22
43 | AUGCAGCAAUAUUACGUUAG | -3.05 ± 0.15 | -2.38 ± 0.2
44 | AUCCAGCAAUAUUACGAGAC | -2.51 ± 0.091 | -2.01 ± 0.11
45 | UUCUAGCAAUAUUACGGAUU | -2.7 ± 0.15 | -0.761 ± 0.14
46 | GGAAAGCAAUAUUACGGGAC | -2.53 ± 0.1 | -1.18 ± 0.11
47 | CAAUAGCAAUAUUACGUCAC | -2.04 ± 0.2 | -2.71 ± 0.43
48 | CAUGAGCAAUAUUACGUAUA | -3.31 ± 0.3 | -2.2 ± 0.21
49 | CCAAAGCAAUAUUACGCUAG | -3.78 ± 0.2 | -2.4 ± 0.16
